Protein stability index data for 94 variants are collected here from the supplement of paper PMC10567573.

Sequences and labels used below:
B1: TTC32 (parent)
chain: YSAYIRRCACAASSDESPGSKCSP
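Note: lentivirally expressed fusions sorted by FACS into six bins by GFP to DsRed ratio, PSI derived from sequencing read proportions per bin multiplied by bin number.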

Variants of B1 are the subject of the data set. Put plainly: protein stability index of a GFP-peptide fusion (GPS, HEK-293T) (PSI 1-6); higher = more stable. The settings on record: c terminus: a fixed tail appended.
For YSAYIRRCACAASEDESPGSKCSP [S14E], the protein stability index was 2.65. With YSAYIRRCACAASPDESPGSKCSP [S14P], the protein stability index was 2.29. For the variant YSAYIRRCACAASTDESPGSKCSP [S14T], the protein stability index is 1.93. As to YSAYIRRCACAASQDESPGSKCSP [S14Q], the protein stability index is 2.19.

Turning to YSAYIRRCACAASHDESPGSKCSP [S14H], the protein stability index is 2.74. As for YSAYIRRCACAASLDESPGSKCSP [S14L], the figure is 2. In the case of YSAYIRRCACAASDDESPGSKCSP [S14D] it was 2.38; in that of YSAYIRRCACAASIDESPGSKCSP [S14I], 1.96; in that of YSAYIRRCACAASCDESPGSKCSP [S14C], 2.18.

Take YSAYIRRCACAASMDESPGSKCSP [S14M]: the protein stability index is 1.4. YSAYIRRCACAASWDESPGSKCSP [S14W]: the protein stability index stood at 1.92. Regarding YSAYIRRCACAASKDESPGSKCSP [S14K], the protein stability index came to 2.29. With YSAYIRRCACAASGDESPGSKCSP [S14G], the protein stability index worked out at 2.33. On to YSAYIRRCACAASRDESPGSKCSP [S14R], for which the protein stability index is 2.03. As for YSAYIRRCACAASVDESPGSKCSP [S14V], the figure is 1.53. For YSAYIRRCACAASYDESPGSKCSP [S14Y], the protein stability index is 1.88. On to YSAYIRRCACAASNDESPGSKCSP [S14N], for which the protein stability index was determined as 2.65. As for YSAYIRRCACAASADESPGSKCSP [S14A], the figure is 2.16; as for YSAYIRRCACAASFDESPGSKCSP [S14F], 1.45.

As to YSAYIRRCACAARSDESPGSKCSP [S13R], the protein stability index amounted to 2.21. In the case of YSAYIRRCACAALSDESPGSKCSP [S13L] it was 1.69. In the case of YSAYIRRCACAAQSDESPGSKCSP [S13Q] it was 1.96; in that of YSAYIRRCACAAGSDESPGSKCSP [S13G], 2.57; in that of YSAYIRRCACAACSDESPGSKCSP [S13C], 2.96. In the case of YSAYIRRCACAAISDESPGSKCSP [S13I] it was 2; in that of YSAYIRRCACAANSDESPGSKCSP [S13N], 1.87; in that of YSAYIRRCACAAYSDESPGSKCSP [S13Y], 2.13.

Regarding YSAYIRRCACAAFSDESPGSKCSP [S13F], the protein stability index came to 2.08. As for YSAYIRRCACAAESDESPGSKCSP [S13E], the figure is 2.03. As for YSAYIRRCACAATSDESPGSKCSP [S13T], the protein stability index amounted to 2.1.

With YSAYIRRCACAAHSDESPGSKCSP [S13H], the protein stability index came to 2.1. In the case of YSAYIRRCACAAVSDESPGSKCSP [S13V] it was 1.49. In the case of YSAYIRRCACAAWSDESPGSKCSP [S13W] it was 1.98.

YSAYIRRCACAAPSDESPGSKCSP [S13P]: the protein stability index is 1.89.

For YSAYIRRCACAAKSDESPGSKCSP [S13K], the protein stability index is 2.28. In the case of YSAYIRRCACAAASDESPGSKCSP [S13A] it was 2.07; in that of YSAYIRRCACAADSDESPGSKCSP [S13D], 2.62.

For YSAYIRRCACAAMSDESPGSKCSP [S13M], the protein stability index was determined as 1.55. Regarding YSAYIRRCACAASSDASPGSKCSP [E16A], the protein stability index was found to be 1.44. For YSAYIRRCACAASSDQSPGSKCSP [E16Q], the protein stability index came out at 2.18. Regarding YSAYIRRCACAASSDHSPGSKCSP [E16H], the protein stability index is 2.36. As for YSAYIRRCACAASSDCSPGSKCSP [E16C], the figure is 1.83; as for YSAYIRRCACAASSDFSPGSKCSP [E16F], 2.68. Turning to YSAYIRRCACAASSDGSPGSKCSP [E16G], the protein stability index was found to be 1.8.

As for YSAYIRRCACAASSDLSPGSKCSP [E16L], the protein stability index worked out at 1.58. As for YSAYIRRCACAASSDYSPGSKCSP [E16Y], the figure is 2.36; as for YSAYIRRCACAASSDTSPGSKCSP [E16T], 2.22. For YSAYIRRCACAASSDNSPGSKCSP [E16N], the protein stability index was found to be 1.92.

With YSAYIRRCACAASSDPSPGSKCSP [E16P], the protein stability index is 2.01. As for YSAYIRRCACAASSDRSPGSKCSP [E16R], the figure is 1.62; as for YSAYIRRCACAASSDMSPGSKCSP [E16M], 2.42; as for YSAYIRRCACAASSDKSPGSKCSP [E16K], 1.53. For YSAYIRRCACAASSDSSPGSKCSP [E16S], the protein stability index was determined as 1.94. As for YSAYIRRCACAASSDISPGSKCSP [E16I], the figure is 1.82. In the case of YSAYIRRCACAASSDWSPGSKCSP [E16W] it was 3.48; in that of YSAYIRRCACAASSDVSPGSKCSP [E16V], 1.81; in that of YSAYIRRCACAASSDDSPGSKCSP [E16D], 2.06.

As for YSAYIRRCACAMSSDESPGSKCSP [A12M], the protein stability index is 1.82.

For the variant YSAYIRRCACAWSSDESPGSKCSP [A12W], the protein stability index worked out at 2.08. As for YSAYIRRCACAQSSDESPGSKCSP [A12Q], the figure is 2.12; as for YSAYIRRCACASSSDESPGSKCSP [A12S], 2.48; as for YSAYIRRCACANSSDESPGSKCSP [A12N], 2.33.

For the variant YSAYIRRCACARSSDESPGSKCSP [A12R], the protein stability index stood at 1.93. As to YSAYIRRCACAPSSDESPGSKCSP [A12P], the protein stability index came out at 2.26. As for YSAYIRRCACAYSSDESPGSKCSP [A12Y], the figure is 1.75; as for YSAYIRRCACATSSDESPGSKCSP [A12T], 1.94; as for YSAYIRRCACAVSSDESPGSKCSP [A12V], 2.16. In the case of YSAYIRRCACAASSPESPGSKCSP [D15P] it was 1.99; in that of YSAYIRRCACAASSYESPGSKCSP [D15Y], 2.38; in that of YSAYIRRCACAASSWESPGSKCSP [D15W], 1.6. In the case of YSAYIRRCACAASSQESPGSKCSP [D15Q] it was 2.02. For the variant YSAYIRRCACAASSEESPGSKCSP [D15E], the protein stability index came out at 2.35. In the case of YSAYIRRCACAASSGESPGSKCSP [D15G], the protein stability index was 1.72. YSAYIRRCACAASSNESPGSKCSP [D15N]: the protein stability index stood at 1.65. As for YSAYIRRCACAASSIESPGSKCSP [D15I], the protein stability index was 2.06. With YSAYIRRCACAASSFESPGSKCSP [D15F], the protein stability index stood at 2.34. Take YSAYIRRCACAASSSESPGSKCSP [D15S]: the protein stability index is 2.41. On to YSAYIRRCACAASSAESPGSKCSP [D15A], for which the protein stability index was determined as 3.53. As for YSAYIRRCACAASSRESPGSKCSP [D15R], the figure is 1.85.

For the variant YSAYIRRCACAASSCESPGSKCSP [D15C], the protein stability index worked out at 2.03. In the case of YSAYIRRCACAASSKESPGSKCSP [D15K], the protein stability index was determined as 1.81. In the case of YSAYIRRCACAASSMESPGSKCSP [D15M] it was 2.28; in that of YSAYIRRCACAASSTESPGSKCSP [D15T], 2.76; in that of YSAYIRRCACAASSLESPGSKCSP [D15L], 1.61. YSAYIRRCACAASSVESPGSKCSP [D15V]: the protein stability index turned out to be 1.51. Take YSAYIRRCACAASSHESPGSKCSP [D15H]: the protein stability index was determined as 2.37. In the case of YSAYIRRCACAASSDEIPGSKCSP [S17I] it was 2.66. As for YSAYIRRCACAASSDEAPGSKCSP [S17A], the figure is 2.17. As for YSAYIRRCACAASSDEEPGSKCSP [S17E], the figure is 2.38; as for YSAYIRRCACAASSDEFPGSKCSP [S17F], 1.85; as for YSAYIRRCACAASSDECPGSKCSP [S17C], 2.29. As to YSAYIRRCACAASSDEHPGSKCSP [S17H], the protein stability index was 1.85. In the case of YSAYIRRCACAASSDEGPGSKCSP [S17G], the protein stability index worked out at 2.08.

Regarding YSAYIRRCACAASSDEDPGSKCSP [S17D], the protein stability index stood at 2.05.
